Measurements as given in patent US20230416704A1, “LACTONASE AND STABILIZED MUTANTS THEREOF FOR TREATING FUNGAL INFECTIONS IN PLANTS” (MIGAL GALILEE RESEARCH INSTITUTE LTD., priority 2020, published 2023).

Key:
P. expansum = assay: Pathogenicity assay in apples (EaAiiA)
Method: The lesion size of the treated apples was measured 3 days after inoculation with P. expansum. Mean values of 18 replicates are presented (**** p<0.0001, according to one-way ANOVA followed by Tukey-Kramer).
Pathogenicity assay in apples. P. expansum spores (50 spores/ml) were incubated in 1 ml LB medium/sterile water at 25° C. 300 rpm either alone or 2 μM EaAiiA, and apples were then inoculated and incubated in the same manner as described above. Enzyme incubated with 50 mM EDTA at 90° C. for 1 hour was used as a negative control (inactivated enzyme).

[1] = Enzyme kinetics analysis of EaAiiA with patulin; conditions: 0.05 μM EaAiiA, patulin 0-0.4 mM, pH 7.5, 100 μM ZnCl2
Method: (6A) Michaelis-Menten kinetics analysis with 0.05 μM purified bacterial lactonase (EaAiiA), in activity buffer containing 100 mM Tris pH 7.5, 100 mM NaCl, 100 μM ZnCl2, at Error bars indicate standard deviation of three replicates for each treatment.
Enzyme kinetics analysis with patulin. EaAiiA activity (0.05 μM) with patulin was analyzed as follows: EaAiiA activity was measured by detecting the reduction in the UV absorbance (detected at 278 nm) of patulin at different concentrations (0-0.4 mM) in the presence of enzyme at a final concentration of 0.05 μM, in an activity buffer containing 100 mM Tris pH 7.5, 100 mM NaCl, 100 μM ZnCl2, in UV 96-well plates. An activity buffer was used as a negative control. The activity was monitored in a microtiter plate reader (BioTeK, Winooski, VT, USA). Reactions were performed as the concentration of organic solvent was lower than 1%. Vo initial rates were corrected for the patulin spontaneous hydrolysis background rate performed with an activity buffer. Kinetic parameters were obtained by GraphPad software as fitting initial rates directly to the Michaelis-Menten equation, standard deviations obtained from three independent measurements.

B1: EaAiiA: AHL lactonase encoded by Erwinia amylovora, metallo-β-lactamase fold (protein, listed as Erwinia amylovora)
chain: MNYHIIPVTAFAQNCSVIWCPETGEAALVDPGGDAQKIKHEIAALGLTVKQILLTHGHLDHVGAAAELAEHYDVPIVGPHKADKFWLDGLPQQSQMFGFDECAPLTPDRWLQEGEVVLVGNTVLEVLLCPGHTPGHIVFFERKARLLVSGDVIFSGGVGRSDFPQGSHQDLIASILNKLLPLGDDVTFIAGHGPMSTLGRERISNPFLQ
effect of inactivated enzyme on inhibition of fungal colonization (P. expansum; EaAiiA inactivated by 90° C. and EDTA prior to incubation with spores): fully reduced the inhibition | decline of colonized area (P. expansum; spores incubated with 2 μM EaAiiA prior to apple inoculation, third day after inoculation): 85% | kcat [1]: 5.426 ± 1.5 s⁻¹ | Km ([1]; read-out: estimated KM): 764 ± 284 µM
